Results taken from patent US20210032351A1 (XDCEXPLORER SHANGHAI, published 2021).
Ends that are not written are not given here. * marks the point of attachment. Biotin = O=C1N[C@H]2[C@H](CS[C@H]2CCCCC(=O)*)N1

B1: Murine anti-75G7 (antibody, V domains shown)
VH: EVQLQQSGPELVKPGASVKIPCKASGYTFTDYNMDWVKQSHGKSLEWIGDINPNNGDTIYNQKFKGKATLTVDKSSSTAYMELRSLTSEDTAVYYCARGDYDGYYPVYYAMDYWGQGTSVTVSS
VL: ENVLTQSPAIMSASPGEKVTMTCRASSSVSSSYLHWYQQKSGASPKLWIFSTSNLAAGVPARFSGSGSGTSYSLTVSSVEAEDAATYYCQQYSGYPLTFGAGTKLELK
notes: murine hybridoma antibody; also called 75G7C6
B2: Chimeric antibody 75G7 (antibody, human IgG1, V domains shown)
VH: B1 VH
VL: B1 VL
notes: also called c75G7C6; chimeric antibody c75G7C6

Columns and labels:
[1] = biological target: T1, human EGFR protein (wild-type), on cells (human, UniProt P00533 25-1210); test: FACS on A431 cells (wild-type EGFR), Alexa 488 secondary antibody, mean fluorescence intensity
T1 construct: whole, on cells; transfected on CHO-K1 cells; endogenous on the human cell lines; the cell is named under assay; also called wild-type EGFR; hEGFR
Method: The cells are washed twice with the HBSS buffer and are counted, and then the cells are diluted with the HBSS buffer to 2×10⁶ cells/ml, added with 1% goat serum blocking solution, with the percentage being the mass percentage, and incubated on ice for 30 minutes, and then centrifugally washed twice with the HBSS buffer. The collected cells are suspended to 2×10⁶ cells/mL with an FACS buffer (HBSS+1% BSA, with the percentage being the mass percentage), added to a 96-well FACS reaction plate at 100 μL/well, then added with 100 μL/well of the purified EGFRvIII antibody (samples to be tested) obtained in example 2, and incubated on ice for 2 hours. The plate is centrifugally washed twice with the FACS buffer, added with 100 μL/well of a fluorescence (Alexa 488) labeled secondary antibody (purchased from Invitrogen), and then incubated on ice for 1 hour. […] The cells are suspended in 100 μL of the FACS buffer, and the results are detected and analyzed by FACS (FACS Calibur, purchased from BD). Data analysis is performed by using the software (CellQuest) to obtain the mean fluorescence intensity (MFI) of the cells. Data is further analyzed by using the software (GraphPad Prism5) to perform data fitting and calculate EC50. […]

pep13 = biological target: T2, pep13 (cysteine pairing not given here); test: polypeptide dot matrix ELISA
T2 peptide: HGSCVRACGADSYEMEK(Biotin)

pep11 = biological target: T3, pep11 (cysteine pairing not given here); test: polypeptide dot matrix ELISA
T3 peptide: TDHGSCVRACGADSYEK(Biotin)

pep21 = biological target: T4, pep21; test: polypeptide dot matrix ELISA
T4 peptide: GADSYEMEEDGVRKCKK(Biotin)

pep10 = biological target: T5, pep10 (cysteine pairing not given here); test: polypeptide dot matrix ELISA
T5 peptide: VTDHGSCVRACGADSYK(Biotin)

pep25 = biological target: T6, pep25 (cysteine pairing not given here); test: polypeptide dot matrix ELISA
T6 peptide: YEMEEDGVRKCKKCEGK(Biotin)

[2] = biological target: T7, human EGFRvIII-hFc protein (human, UniProt P00533 25-645); test: ELISA, EGFRvIII-hFc coated
T7 construct: extracellular domain; also called immunogen A; hFc-tagged EGFRvIII protein; not shown: human IgG Fc fragment (hFc) of the pCpC vector

[3] = biological target: T8, human EGFRvIII protein on the cell surface (human, UniProt P00533 25-1210); test: FACS on U87MG-EGFRvIII cells
T8 construct: whole, on cells; the cell line is named under assay; also called hEGFRvIII; U87MG-hEGFRvIII
In short: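 U87MG-EGFRvIII, A431 and primary human hepatocytes (2×10⁶ cells/mL, goat-serum blocked) were incubated with antibody on ice for 2 h, then with an Alexa 488 secondary (1:1000) for 1 h and fixed in 4% paraformaldehyde. Mean fluorescence intensity was read by flow cytometry, and EC50 was derived by curve fitting.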

| Binder | EC50 (read off the curve) [1] [nM] | binding result (pep13) | binding result (pep11) | binding result (pep21) | binding result (pep10) | binding result (pep25) | EC50 [2] [nM] | Maximum OD450 value [2] [OD450] | OD450 nm at 0.0001 nM antibody [2] [OD450] | OD450 nm at 0.001 nM antibody [2] [OD450] | OD450 nm at 0.01 nM antibody [2] [OD450] | OD450 nm at 0.1 nM antibody [2] [OD450] | OD450 nm at 1 nM antibody [2] [OD450] | OD450 nm at 10 nM antibody [2] [OD450] | OD450 nm at 100 nM antibody [2] [OD450] | EC50 [3] [nM] | Maximum mean fluorescence intensity [3] [MFI] |
| --- | --- | --- | --- | --- | --- | --- | --- | --- | --- | --- | --- | --- | --- | --- | --- | --- | --- |
| B1 | ~10 | no binding | no binding | no binding | no binding | no binding | – | – | – | – | – | – | – | – | – | – | – |
| B2 | – | – | – | – | – | – | 0.02 | 3.03 | 0.07 | 0.08 | 0.15 | 0.65 | 2.69 | 3.41 | 3.44 | 5.75 | 18100 |
